Test results from patent publication US12612465B2, “Formulations comprising PCSK9 specific monoclonal antibodies” (Amgen Inc., priority 2012, dated 2026).

Legend:
[1] = target: T1, human PCSK9 (Homo sapiens, UniProt Q8NBP7, E620G/G670E/V474I); assay: BIAcore solution equilibrium binding assay; conditions: hPCSK9, solution equilibrium
T1 construct: made in house
Excerpt: Flow cell 3 was used as a background control. […] Although cPCSK9 has lower protein concentration observed from KinExA assay and SDS-gel, its concentration was not adjusted here since the concentration of cPCSK9 was not used for calculation of KD. […] FIG. 5B depicts the results from the solution equilibrium assay at three different hPCSK9 concentrations for hPCSK9. FIG. 5C depicts a similar set of results for mPCSK9. FIG. 5D depicts the results from the above biacore capture assay.

[2] = target: T2, PCSK9 (Homo sapiens, UniProt Q8NBP7); assay: Phase 1 ascending single dose study in healthy subjects; format: in vivo
T2 construct: endogenous in cells; host or cells: human subjects, in vivo
T2 sequence (Q8NBP7 153-692): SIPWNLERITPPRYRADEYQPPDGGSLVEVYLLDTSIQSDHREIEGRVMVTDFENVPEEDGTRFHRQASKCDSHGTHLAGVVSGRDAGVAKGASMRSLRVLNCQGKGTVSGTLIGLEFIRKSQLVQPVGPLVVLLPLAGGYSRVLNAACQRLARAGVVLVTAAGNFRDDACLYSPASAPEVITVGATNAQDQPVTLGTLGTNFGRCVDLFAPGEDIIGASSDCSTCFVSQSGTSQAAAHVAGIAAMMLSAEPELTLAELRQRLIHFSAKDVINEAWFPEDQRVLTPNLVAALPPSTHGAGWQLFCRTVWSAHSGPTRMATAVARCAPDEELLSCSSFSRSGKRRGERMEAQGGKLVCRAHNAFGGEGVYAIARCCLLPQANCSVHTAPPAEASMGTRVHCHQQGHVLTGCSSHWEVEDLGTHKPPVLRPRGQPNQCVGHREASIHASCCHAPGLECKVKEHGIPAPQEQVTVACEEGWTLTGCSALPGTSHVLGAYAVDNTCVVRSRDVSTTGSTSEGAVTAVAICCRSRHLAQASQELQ

[3] = target: T2, PCSK9; assay: Phase 1b ascending multiple dose study in hyperlipidemic subjects on a statin; format: in vivo
Experimental: The study had seven cohorts. […] Cohort 6 was conducted in hypercholesterolemic subjects on high doses of a statin (atorvastatin 80 mg or rosuvastatin 40 mg).

[4] = target: T2, PCSK9; assay: 12 week dose-ranging study in combination with statins (Example 25); format: in vivo; conditions: on statin, preliminary
Experimental: Randomization will be stratified by screening LDL-C level (<130 mg/dL [3.4 mmol/L] vs ≥130 mg/dL) and ezetimibe use at baseline (yes vs no). Randomization should occur within 5-10 days of the screening LDL-C evaluation used to determine eligibility. Study visits are every 2 weeks, irrespective whether the subject receives Q2W SC or Q4W treatment. […] The end-of-study visit and the last estimation of lipids is at week 12 for subjects on Q4W IP schedule and week 14 for subjects on Q2W IP schedule.
Males and females, ≥18 to ≤80 years of age, are eligible for this study. For enrollment,
subjects must be on a statin, with or without ezetimibe, with stable dose(s) for at least 4 weeks before LDL-C screening and not requiring uptitration. Fasting LDL-C at screening must be ≥85 mg/dL (2.2 mmol/L). Enrollment of subjects with screening fasting LDL-C between ≥85 mg/dL (2.2 mmol/L) and <100 mg/dL (2.6 mmol/L) will be limited to no more than approximately 20% of total planned enrollment. Fasting triglycerides must be ≤400 mg/dL (4.5 mmol/L) as determined by the central laboratory analysis at screening.

[5] = tested on: LDLR; assay: LDLR levels in HepG2 and HepG2-PCSK9 cells with mevinolin (immunoblot); format: cell-based, human; conditions: 48 hours
Experimental: HepG2 cells were seeded in DMEM with 10% fetal bovine serum (FBS) and grown to ˜90% confluence. The cells were treated with indicated amounts of mevinolin (a statin, Sigma) and PCSK9 ABPs (FIGS. 12A-12C) in DMEM with 3% FBS for 48 hours. Total cell lysates were prepared. […] of total proteins were separated by gel electrophoresis and transferred to PVDF membrane. Immunoblots were performed using rabbit anti-human LDL receptor antibody (Fitzgerald) or rabbit anti-human b-actin antibody. The enhanced chemiluminescent results are shown in the top panels of FIGS. 12A-12C. The intensity of the bands were quantified by ImageJ software and normalized by b-actin. The relative levels of LDLR are shown in the lower panels of FIGS. 12A-12C.
HepG2-PCSK9 cells were also created. These were stable HepG2 cell line transfected with human PCSK9. The cells were seeded in DMEM with 10% fetal bovine serum (FBS) and grew to ˜90% confluence. The cells were treated with indicated amounts of mevinolin (Sigma) and PCSK9 ABPs (FIGS. 12D-12F) in DMEM with 3% FBS for 48 hours. Total cell lysates were prepared. […] of total proteins were separated by gel electrophoresis and transferred to PVDF membrane Immunoblots were performed using rabbit anti-human LDL receptor antibody (Fitzgerald) or rabbit anti-human b-actin antibody. […] The intensity of the bands were quantified by ImageJ software and normalized by b-actin.

[6] = cohorts 1-5, end of dosing interval
[7] = 70 mg Q2W SC, end of dosing interval
[8] = 105 mg Q2W SC, end of dosing interval
[9] = 280 mg (Q2W as printed) SC, end of dosing interval
[10] = 350 mg (Q2W as printed) SC, end of dosing interval

T1 sequence (Q8NBP7 153-692 V474I/E620G/G670E): as the sequence (Q8NBP7 153-692) above, with V322I, E468G, G518E counted along it

B1: 21B12: human anti-PCSK9 monoclonal antibody, light/heavy variable region SEQ ID NO 23/49 (antibody, listed as Homo sapiens, V domains shown)
VH: QVQLVQSGAEVKKPGASVKVSCKASGYTLTSYGISWVRQAPGQGLEWMGWVSFYNGNTNYAQKLQGRGTMTTDPSTSTAYMELRSLRSDDTAVYYCARGYGMDVWGQGTTVTVSS
VL: QSALTQPASVSGSPGQSITISCTGTSSDVGGYNSVSWYQQHPGKAPKLMIYEVSNRPSGVSNRFSGSKSGNTASLTISGLQAEDEADYYCNSYTSTSMVFGGGTKLTVL
Kd [1]: 0.015 nM
median AUC0-inf ([2]; 420 mg IV): 1550 µg·days/mL
median maximum observed concentration (Cmax) ([2]; 420 mg IV): 139 µg/mL
anti-21B12 antibodies in serum ([2]; all 42 subjects who received 21B12): negative for anti-21B12 antibodies
subjects with treatment-emergent adverse events ([2]; any dose, 29 of 42 subjects): 69%
effects on laboratory variables, ECGs, vital signs ([2]; human, in vivo): no trends indicative of clinically important effects
LDL-C nadir observed after dosing ([2]; single dose, healthy subjects): ≤ 2 weeks
suppression of PCSK9 ([2]; single doses ≥70 mg SC): Complete suppression of PCSK9
suppression of PCSK9 ([3]; cohort 3 (140 mg Q2W SC 3 times), preliminary): Near-complete suppression of PCSK9
maximum reduction in LDL-C versus placebo ([3]; cohort 6, high-dose statins): 73%
mean reduction in LDL-C vs placebo ([3]; cohort 6, high-dose statins, end of dosing interval after 3 biweekly doses): 63%
maximum LDL-C reduction versus placebo ([3]; cohort 7 heFH): 70%
maximum reduction of ApoB versus placebo ([3]; cohort 7 heFH): 57%
maximum reduction of non-HDL cholesterol versus placebo ([3]; cohort 7 heFH): 67%
maximum total cholesterol reduction versus placebo ([3]; cohort 7 heFH): 47%
mean reduction in LDL-C vs placebo ([3]; cohort 7 heFH, 140 mg SC Q2W 3 times, week 6): 65%
mean reduction in ApoB levels vs placebo ([3]; cohort 7 heFH, week 6): up to 47%
mean reduction in lipoprotein a (Lp(a)) vs placebo ([3]; cohort 7 heFH, week 6): 50%
mean reduction in non-HDL cholesterol vs placebo ([3]; cohort 7 heFH, week 6): 61%
mean reduction in serum PCSK9 values vs placebo ([3]; cohort 7 heFH, week 6): 78%
mean reduction in total cholesterol vs placebo ([3]; cohort 7 heFH, week 6): up to 42%
maximum ApoB reduction vs placebo ([3]; cohorts 1-5): up to 59%
mean LDL-C reduction vs placebo at maximal reduction ([3]; cohorts 1-5, low to moderate statin doses): up to 81%
mean ApoB reduction vs placebo [3, 6]: up to 54%
mean reduction of PCSK9 levels vs placebo [3, 6]: up to 94%
mean LDL-C reduction vs placebo at end of dosing interval ([3]; cohorts 1-5, week 6 after 3 biweekly SC doses): ≤ 75%
mean LDL-C reduction at end of dosing interval ([3]; cohorts 1-5, week 8 after 2 every 4 week SC doses): ≤ 66%
mean Lp(a) reduction vs placebo ([3]; cohorts 1-6, end of dosing interval): up to 43%
circulating PCSK9 after treatment ([3]; heFH subjects): undetectable
plasma PCSK9 ([3]; higher doses): undetectable
serious AEs ([3]; repeated SC doses over 6 weeks): no serious AEs
decrease in circulating LDL-C vs placebo ([3]; repeated SC doses over 6 weeks, low-to-moderate or high-dose statins): up to 81%
LDL-C nadir observed after initial dosing ([3]; subjects on stable moderate statin doses, preliminary): ≤ 2 weeks
LS mean percent increase from baseline in HDL-C [4, 7]: 21.17%
LS mean percent reduction from baseline in LDL-C [4, 7]: 39.22%
LS mean percent reduction from baseline in Lp(a) [4, 7]: 21.17%
LS mean percent reduction from baseline in VLDL-C [4, 7]: 14.84%
LS mean percent reduction from baseline in non-HDL-C [4, 7]: 36.20%
LS mean percent reduction from baseline in total cholesterol [4, 7]: 26.33%
LS mean percent reduction from baseline in triglycerides [4, 7]: 7.20%
LS mean percent increase from baseline in HDL-C [4, 8]: 6.80%
LS mean percent reduction from baseline in LDL-C [4, 8]: 56.38%
LS mean percent reduction from baseline in Lp(a) [4, 8]: 33.41%
LS mean percent reduction from baseline in VLDL-C [4, 8]: 12.75%
LS mean percent reduction from baseline in non-HDL-C [4, 8]: 51.20%
LS mean percent reduction from baseline in total cholesterol [4, 8]: 36.91%
LS mean percent reduction from baseline in triglycerides [4, 8]: 5.65%
LS mean percent increase from baseline in HDL-C ([4]; 140 mg Q2W SC): 8.43%
LS mean percent reduction from baseline in LDL-C ([4]; 140 mg Q2W SC): 68.76%
LS mean percent reduction from baseline in Lp(a) ([4]; 140 mg Q2W SC): 33.87%
LS mean percent reduction from baseline in VLDL-C ([4]; 140 mg Q2W SC): 45.14%
LS mean percent reduction from baseline in non-HDL-C ([4]; 140 mg Q2W SC): 64.61%
LS mean percent reduction from baseline in total cholesterol ([4]; 140 mg Q2W SC): 46.17%
LS mean percent reduction from baseline in triglycerides ([4]; 140 mg Q2W SC): 17.60%
LS mean percent increase from baseline in HDL-C [4, 9]: 2.17%
LS mean percent reduction from baseline in Lp(a) [4, 9]: 22.54%
LS mean percent reduction from baseline in VLDL-C [4, 9]: 18.12%
LS mean percent reduction from baseline in non-HDL-C [4, 9]: 38.89%
LS mean percent reduction from baseline in total cholesterol [4, 9]: 28.08%
LS mean percent reduction from baseline in triglycerides [4, 9]: 6.75%
LS mean percent reduction from baseline in LDL-C ([4]; 280 mg (Q4W) SC, end of dosing interval): 42.62%
LS mean percent increase from baseline in HDL-C [4, 10]: 6.92%
LS mean percent reduction from baseline in Lp(a) [4, 10]: 29.43%
LS mean percent reduction from baseline in VLDL-C [4, 10]: 20.89%
LS mean percent reduction from baseline in non-HDL-C [4, 10]: 50.83%
LS mean percent reduction from baseline in total cholesterol [4, 10]: 36.04%
LS mean percent reduction from baseline in triglycerides [4, 10]: 9.17%
LS mean percent reduction from baseline in LDL-C ([4]; 350 mg SC, end of dosing interval): 56.84%
LS mean percent increase from baseline in HDL-C ([4]; 420 mg (Q2W as printed) SC): 7.42%
LS mean percent reduction from baseline in Lp(a) ([4]; 420 mg (Q2W as printed) SC): 23.29%
LS mean percent reduction from baseline in VLDL-C ([4]; 420 mg (Q2W as printed) SC): 28.66%
LS mean percent reduction from baseline in non-HDL-C ([4]; 420 mg (Q2W as printed) SC): 48.54%
LS mean percent reduction from baseline in total cholesterol ([4]; 420 mg (Q2W as printed) SC): 42.76%
LS mean percent reduction from baseline in triglycerides ([4]; 420 mg (Q2W as printed) SC): 11.13%
LS mean percent reduction from baseline in LDL-C ([4]; 420 mg SC): 52.19%
LDLR levels compared with the non-neutralizer 25A7.1 [5]: greater increase in LDLR levels
